Measured values as given in the supplement of paper PMC9112550, “Optimization of the antimicrobial peptide Bac7 by deep mutational scanning” (BMC Biology, 2022).

Tested on: Escherichia coli TOP10
Experiment: shrunken log2 fold change of peptide-encoding DNA abundance (4.5 h post-induction vs induction); higher = less antimicrobial activity (less host growth inhibition)
Settings: time post-induction: 4.5 h; library: site-saturation at positions 5, 18, 19, 20
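Note: peptides expressed intracellularly from a pBAD plasmid library in pooled LB shake-flask culture, induced with 0.3% L-arabinose, DNA abundance read by NGS, three biological replicates, DESeq2 with apeglm shrinkage.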

Sequence	shrunken log2 fold change
RRIRYRPPRLPRPRPRPVFGPRP	-0.415
RRIRMRPPRLPRPRPRPSCHPRP	-0.0523
RRIRQRPPRLPRPRPRPRISPRP	-0.176
RRIRLRPPRLPRPRPRPYIYPRP	-1.24
RRIRARPPRLPRPRPRPICEPRP	0.512
RRIRVRPPRLPRPRPRPKGRPRP	0.211
RRIRPRPPRLPRPRPRPTFSPRP	-0.182
RRIRPRPPRLPRPRPRPPGKPRP	0.335
RRIRLRPPRLPRPRPRPLVCPRP	-0.0954
RRIRGRPPRLPRPRPRPNIGPRP	0.138
RRIRMRPPRLPRPRPRPSEKPRP	0.938
RRIRWRPPRLPRPRPRPLKGPRP	0.0212
RRIRNRPPRLPRPRPRPKNFPRP	0.0662
RRIRNRPPRLPRPRPRPNNAPRP	0.0167
RRIRARPPRLPRPRPRPMEKPRP	-0.00226
RRIRSRPPRLPRPRPRPDVTPRP	-0.0165
RRIRIRPPRLPRPRPRPYMLPRP	-0.916
RRIRGRPPRLPRPRPRPGGKPRP	0.555
RRIRYRPPRLPRPRPRPTTQPRP	-0.597
RRIRSRPPRLPRPRPRPNVRPRP	-0.0771
RRIRNRPPRLPRPRPRPVDHPRP	-0.01
RRIRLRPPRLPRPRPRPVVDPRP	0.117
RRIRHRPPRLPRPRPRPEETPRP	-0.00605
RRIRMRPPRLPRPRPRPEWYPRP	0.0183
RRIRCRPPRLPRPRPRPTRRPRP	0.391

Sequence	shrunken log2 fold change
RRIRCRPPRLPRPRPRPCKNPRP	-0.194
RRIRFRPPRLPRPRPRPESKPRP	0.183
RRIRERPPRLPRPRPRPFMFPRP	-0.531
RRIRARPPRLPRPRPRPRIHPRP	-0.145
RRIRPRPPRLPRPRPRPQYFPRP	-0.0988
RRIRCRPPRLPRPRPRPEWHPRP	-0.0462
RRIRKRPPRLPRPRPRPDQAPRP	-0.029
RRIRKRPPRLPRPRPRPMPFPRP	0.0304
RRIRRRPPRLPRPRPRPVFNPRP	0.056
RRIRARPPRLPRPRPRPVIIPRP	-0.104
RRIRDRPPRLPRPRPRPQAVPRP	0.164
RRIRWRPPRLPRPRPRPACKPRP	-0.0942
RRIRMRPPRLPRPRPRPSPYPRP	-0.0611
RRIRYRPPRLPRPRPRPECRPRP	-0.142
RRIRIRPPRLPRPRPRPVWAPRP	-0.0187
RRIRWRPPRLPRPRPRPKSKPRP	0.194
RRIRFRPPRLPRPRPRPSVPPRP	-0.0911
RRIRWRPPRLPRPRPRPQDFPRP	0.203
RRIRCRPPRLPRPRPRPCQVPRP	-0.342
RRIRFRPPRLPRPRPRPTSVPRP	-0.0668
RRIRVRPPRLPRPRPRPEGRPRP	0.0493
RRIRDRPPRLPRPRPRPKDEPRP	0.0229
RRIRERPPRLPRPRPRPMSSPRP	-0.000155
RRIRMRPPRLPRPRPRPIKKPRP	0.0441
RRIRNRPPRLPRPRPRPCNNPRP	-0.0122

Sequence	shrunken log2 fold change
RRIRYRPPRLPRPRPRPALAPRP	0.194
RRIRGRPPRLPRPRPRPENSPRP	0.678
RRIRNRPPRLPRPRPRPPATPRP	0.615
RRIRCRPPRLPRPRPRPDCGPRP	-0.169
RRIRDRPPRLPRPRPRPISPPRP	-0.036
RRIRNRPPRLPRPRPRPTTGPRP	0.0259
RRIRFRPPRLPRPRPRPDPQPRP	0.0361
RRIRPRPPRLPRPRPRPAWYPRP	0.0306
RRIRCRPPRLPRPRPRPSWLPRP	-0.547
RRIRNRPPRLPRPRPRPFDQPRP	-0.0155
RRIRFRPPRLPRPRPRPIQDPRP	-0.025
RRIRWRPPRLPRPRPRPPIEPRP	0.702
RRIRRRPPRLPRPRPRPCHIPRP	-0.309
RRIRFRPPRLPRPRPRPSINPRP	-0.625
RRIRCRPPRLPRPRPRPWKEPRP	0.124
RRIRDRPPRLPRPRPRPCCEPRP	0.961
RRIRHRPPRLPRPRPRPDGVPRP	0.0513
RRIRCRPPRLPRPRPRPVMGPRP	0.111
RRIRVRPPRLPRPRPRPMLPPRP	0.0351
RRIRLRPPRLPRPRPRPAWNPRP	0.133
RRIRNRPPRLPRPRPRPEVMPRP	0.0307
RRIRTRPPRLPRPRPRPQSYPRP	-0.0281
RRIRHRPPRLPRPRPRPKLLPRP	-0.0097
RRIRQRPPRLPRPRPRPNHAPRP	-0.474
RRIRQRPPRLPRPRPRPKHVPRP	-0.067

Sequence	shrunken log2 fold change
RRIRFRPPRLPRPRPRPAWHPRP	0.259
RRIRQRPPRLPRPRPRPTFYPRP	-0.116
RRIRRRPPRLPRPRPRPSVCPRP	0.0243
RRIRVRPPRLPRPRPRPMLEPRP	0.0706
RRIRWRPPRLPRPRPRPFMSPRP	-0.0321
RRIRERPPRLPRPRPRPPEFPRP	0.127
RRIRSRPPRLPRPRPRPIQCPRP	0.0235
RRIRDRPPRLPRPRPRPGTGPRP	0.304
RRIRQRPPRLPRPRPRPWYCPRP	-1.83
RRIRSRPPRLPRPRPRPYQCPRP	-0.00419
RRIRDRPPRLPRPRPRPTAIPRP	0.394
RRIRKRPPRLPRPRPRPYNCPRP	0.00529
RRIRNRPPRLPRPRPRPCADPRP	1.47
RRIRCRPPRLPRPRPRPKGVPRP	0.595
RRIRLRPPRLPRPRPRPAYGPRP	-0.0437
RRIRERPPRLPRPRPRPQLYPRP	-0.441
RRIRNRPPRLPRPRPRPDTLPRP	-0.0286
RRIRCRPPRLPRPRPRPPSEPRP	0.102
RRIRQRPPRLPRPRPRPQHAPRP	-0.476
RRIRFRPPRLPRPRPRPTYCPRP	-0.339
RRIRWRPPRLPRPRPRPGCTPRP	0.194
RRIRSRPPRLPRPRPRPGRTPRP	0.0636
RRIRYRPPRLPRPRPRPRFCPRP	-0.17
RRIRMRPPRLPRPRPRPEKCPRP	-0.0105
RRIRERPPRLPRPRPRPYRAPRP	0.0532

Sequence	shrunken log2 fold change
RRIRGRPPRLPRPRPRPVESPRP	0.00705
RRIRWRPPRLPRPRPRPNNTPRP	-0.587
RRIRPRPPRLPRPRPRPHNAPRP	-0.284
RRIRGRPPRLPRPRPRPKNFPRP	0.0583
RRIRMRPPRLPRPRPRPCIWPRP	0.0563
RRIRLRPPRLPRPRPRPYVVPRP	-0.481
RRIRWRPPRLPRPRPRPHRIPRP	-0.225
RRIRQRPPRLPRPRPRPEGMPRP	0.13
RRIRSRPPRLPRPRPRPVQFPRP	0.11
RRIRIRPPRLPRPRPRPMNSPRP	-0.191
RRIRLRPPRLPRPRPRPIRSPRP	-0.0199
RRIRKRPPRLPRPRPRPFGAPRP	0.45
RRIRERPPRLPRPRPRPMVAPRP	0.138
RRIRERPPRLPRPRPRPAGTPRP	0.346
RRIRSRPPRLPRPRPRPAHPPRP	0.427
RRIRTRPPRLPRPRPRPYVAPRP	-0.562
RRIRFRPPRLPRPRPRPGNNPRP	-0.276
RRIRGRPPRLPRPRPRPMDCPRP	0.357
RRIRCRPPRLPRPRPRPYSQPRP	-0.781
RRIRIRPPRLPRPRPRPGKPPRP	0.217
RRIRDRPPRLPRPRPRPECSPRP	0.0314
RRIRMRPPRLPRPRPRPWYMPRP	-0.147
RRIRPRPPRLPRPRPRPFVAPRP	-0.186
RRIRIRPPRLPRPRPRPQEAPRP	0.0332
RRIRARPPRLPRPRPRPRECPRP	0.804

Sequence	shrunken log2 fold change
RRIRKRPPRLPRPRPRPGDRPRP	0.886
RRIRTRPPRLPRPRPRPHPGPRP	0.106
RRIRHRPPRLPRPRPRPTLQPRP	-0.0103
RRIRDRPPRLPRPRPRPAQAPRP	-0.0288
RRIRARPPRLPRPRPRPPKPPRP	0.689
RRIRGRPPRLPRPRPRPPFYPRP	0.397
RRIRGRPPRLPRPRPRPNYVPRP	0.216
RRIRIRPPRLPRPRPRPDMKPRP	-0.0106
RRIRYRPPRLPRPRPRPEPGPRP	0.215
RRIRARPPRLPRPRPRPMLEPRP	0.455
RRIRSRPPRLPRPRPRPWQRPRP	0.074
RRIRCRPPRLPRPRPRPPTIPRP	-0.158
RRIRLRPPRLPRPRPRPGEMPRP	0.0594
RRIRERPPRLPRPRPRPDHHPRP	-0.478
RRIRWRPPRLPRPRPRPHFGPRP	0.168
RRIRVRPPRLPRPRPRPVMYPRP	-0.251
RRIRPRPPRLPRPRPRPVTKPRP	0.138
RRIRIRPPRLPRPRPRPLLYPRP	0.47
RRIRDRPPRLPRPRPRPNAHPRP	-0.0544
RRIRLRPPRLPRPRPRPDAGPRP	0.0316
RRIRPRPPRLPRPRPRPWQVPRP	-0.0573
RRIRGRPPRLPRPRPRPTDIPRP	0.114
RRIRQRPPRLPRPRPRPRYRPRP	-0.419
RRIRVRPPRLPRPRPRPASMPRP	0.0106
RRIRRRPPRLPRPRPRPDYHPRP	-0.0959
